From article PMC6780499, “Characterization, Recombinant Production and Structure-Function Analysis of NvCI, A Picomolar Metallocarboxypeptidase Inhibitor from the Marine Snail Nerita versicolor” (Marine Drugs, 2019) come the findings set out here.

No end group written: not given here.

The test addresses T1, hTAFI (Homo sapiens, UniProt Q96IY4).
T1 sequence (Q96IY4 115-423): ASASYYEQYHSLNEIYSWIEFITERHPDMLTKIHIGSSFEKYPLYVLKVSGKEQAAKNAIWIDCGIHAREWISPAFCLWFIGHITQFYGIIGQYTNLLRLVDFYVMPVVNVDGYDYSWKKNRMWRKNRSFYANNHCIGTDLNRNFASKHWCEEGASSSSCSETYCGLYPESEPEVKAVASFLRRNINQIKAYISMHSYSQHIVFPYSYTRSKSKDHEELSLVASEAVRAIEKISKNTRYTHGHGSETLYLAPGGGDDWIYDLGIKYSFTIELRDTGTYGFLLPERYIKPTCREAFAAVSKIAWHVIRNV
The test can be described thus: Ki determination, tight-binding inhibition of metallocarboxypeptidase. Type of test: biochemical. Conditions: tight-binding equation fit; substrate AAFA 0.1mM; enzyme-inhibitor mixture not preincubated; 37 °C; means (n = 3) ± SD. As to the method:
Inhibitory activities against CPA- and CPB-type forms (bovine and human variants of CPA1, CPA2, CPA4, CPB1, and TAFI) were assayed for all extracts, subject to the experimental conditions that enzyme (E), substrate (S) and inhibitor (I) concentrations as well as the [I]/[E] ratio and preincubation time followed the requirements for tight-binding inhibitor assays. Similar approaches were followed to measure the activities of proteases of different catalytic types, like pepsin, papain, trypsin and subtilisin [45, 46, 47, 48]. All assays were performed in triplicate at 25 °C in a multiplexed manner. For 96-well assays an iEMS spectrophotometer reader/dispenser FM (Labsystems, Finland) was used with a final reaction volume of 250 μL. […] The reactions were followed at 5 s intervals for 5 min and recorded as initial velocities. […]
The Ki values of natural and recombinant NvCI against bCPA1, hCPA1, hCPA2, rat CPA3, hCPA4, hCPB1, bTAFI, hTAFI, hCPD and hCPZ were determined by measuring the enzymatic residual activity (Vi/V0 = a) at different inhibitor concentrations and using a fixed enzyme and substrate concentrations as described above, where vi and v0 are the fraction of enzymatic activity in the presence and absence of inhibitor, respectively, in terms of initial velocities. […]

As a reminder, the Ki is the equilibrium dissociation constant of an inhibitor or competing ligand from its target. “NvCI: 53-residue, three-disulphide proteinaceous metallocarboxypeptidase inhibitor from the marine snail Nerita versicolor; major isoform; UniProt P86912 (FHVPDDRPCINPGRCPLVPDATCTFVCKAADNDFGYECQHVWTFEGQRVGCYA; disulfide (positions not given here); also: three disulphides, pairing not given here; UniProt P86912 1-53, looked up)”: the Ki amounted to 0.393 ± 0.0219 nM.
